Results on three molecules are retold here after article PMC12445000, “Domain-Specific DNA Binding Activities of BRCA1 Reveal Substrate Preferences for Homologous Recombination and Telomere Regulation”.

Series [1] deals with BRCA1 DBD1 (human, UniProt P38398 330-554). As to the kind of experiment: BLI; 150 mM KCl; BLI (BLItz, SAX sensors, immobilized biotin-DNA) in Buffer H: 20 mM HEPES pH 7.5, 150 mM KCl, 5 mM TCEP, 5% glycerol, 25 C; steady-state 1:1 fit; errors 95% CI, n=3. The following applies: protein: recombinant, tags: Ni-NTA purified (details not given). For orientation: BLI is a label-free optical method that tracks binding on a fibre tip over time.

Series [2] has as its target BRCA1 DBD2 (human, UniProt P38398 894-1057). The series is described as above. The following applies: protein: recombinant, tags: Ni-NTA purified (details not given).
[3] abbreviates: label: 5' biotin on strand 1, 5' Cy3 on strand 2, blunt.

Sequence of BRCA1 DBD1 (P38398 330-554): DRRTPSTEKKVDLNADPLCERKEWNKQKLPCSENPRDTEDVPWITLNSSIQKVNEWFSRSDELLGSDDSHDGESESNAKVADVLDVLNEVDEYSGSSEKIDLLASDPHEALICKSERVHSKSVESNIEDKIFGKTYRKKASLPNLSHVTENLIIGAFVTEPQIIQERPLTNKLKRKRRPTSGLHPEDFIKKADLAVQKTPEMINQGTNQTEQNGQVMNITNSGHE
Sequence of BRCA1 DBD2 (P38398 894-1057): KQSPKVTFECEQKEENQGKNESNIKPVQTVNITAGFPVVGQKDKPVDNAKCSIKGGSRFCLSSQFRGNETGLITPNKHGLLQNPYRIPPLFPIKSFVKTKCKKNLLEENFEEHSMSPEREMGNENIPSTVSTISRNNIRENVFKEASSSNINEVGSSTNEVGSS

Broadly, the Kd is the equilibrium constant for the complex coming apart. For TTAGGGTTAGGGTTAGGGTTAGGG (structured_DNA) [BioG4Telo (G4)], the dissociation constant (Kd) was 67.2 ± 12.5 nM in series [1] (label: 5' biotin, G4) and 34.7 ± 16.1 nM in series [2] (label: 5' biotin, G4).

B1: Bioss60R (ssDNA) (ssDNA)
DNA: CCATGGCTCCTGAGCTAGCTGCAGTAGCCTAAAGGATGAAACTAGGATCTTATGCTCCAT
For the molecule B1, the Kd amounted to 68.4 ± 33.8 nM in series [1] (label: 5' biotin) and 40.8 ± 3.7 nM in series [2] (label: 5' biotin).

B2: Biods60R (dsDNA) (dsDNA)
DNA 1: B1 DNA
DNA 2: ATGGAGCATAAGATCCTAGTTTCATCCTTTAGGCTACTGCAGCTAGCTCAGGAGCCATGG
Consider B2, for which the figures for the Kd in series [1] (setting [3]) and in series [2] (setting [3]) were 35.5 ± 9 nM and 44.6 ± 6 nM, respectively.
